Experimental data published in PMC10329719 (2023).
Primed or numbered codes have the meaning given here. Where no end group is shown, it is not given here. FITC′ = not defined here

Columns and labels:
Assay in all cases: ELISA-like fluorescence binding assay
[1] = molecular target: T1, TβR1 (Homo sapiens, UniProt P36897)
T1 chain: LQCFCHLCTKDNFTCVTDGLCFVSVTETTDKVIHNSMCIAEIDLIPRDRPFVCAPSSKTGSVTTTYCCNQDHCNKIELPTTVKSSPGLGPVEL

[2] = molecular target: T2, TβR3 (Homo sapiens, UniProt Q03167)
T2 chain: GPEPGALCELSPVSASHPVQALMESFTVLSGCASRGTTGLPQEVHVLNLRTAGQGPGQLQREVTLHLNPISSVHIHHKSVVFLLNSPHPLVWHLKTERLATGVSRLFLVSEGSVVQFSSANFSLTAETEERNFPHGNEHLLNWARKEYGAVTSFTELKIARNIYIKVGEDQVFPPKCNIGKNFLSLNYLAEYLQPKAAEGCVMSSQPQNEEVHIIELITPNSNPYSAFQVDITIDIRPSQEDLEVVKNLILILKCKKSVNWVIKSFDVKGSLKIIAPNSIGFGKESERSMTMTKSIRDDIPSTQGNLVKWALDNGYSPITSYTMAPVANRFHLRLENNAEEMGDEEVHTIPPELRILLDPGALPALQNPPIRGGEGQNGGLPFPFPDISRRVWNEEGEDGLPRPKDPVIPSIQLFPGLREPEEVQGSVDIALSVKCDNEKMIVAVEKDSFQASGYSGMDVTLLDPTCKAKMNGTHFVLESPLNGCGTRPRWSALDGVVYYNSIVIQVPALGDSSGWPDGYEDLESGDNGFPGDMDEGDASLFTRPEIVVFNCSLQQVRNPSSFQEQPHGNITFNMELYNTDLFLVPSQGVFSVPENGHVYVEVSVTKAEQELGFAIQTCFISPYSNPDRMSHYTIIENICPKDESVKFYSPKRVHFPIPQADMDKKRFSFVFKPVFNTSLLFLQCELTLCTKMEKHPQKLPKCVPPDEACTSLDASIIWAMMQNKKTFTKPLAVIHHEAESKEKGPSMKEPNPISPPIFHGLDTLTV

[3] = molecular target: TβR2 (Homo sapiens, UniProt P37173)
TβR2, sequence (P37173 23-166): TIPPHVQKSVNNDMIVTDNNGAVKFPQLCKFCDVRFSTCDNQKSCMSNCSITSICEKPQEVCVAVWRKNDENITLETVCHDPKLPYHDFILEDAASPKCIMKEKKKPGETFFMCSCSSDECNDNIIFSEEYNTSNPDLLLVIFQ

## ECGLLPVGRPDRVWRLCK-{FITC′} (cysteine pairing not given here) [PTβR2I]
[1]
  Kd: > 34 µM
[2]
  Kd: > 34 µM
[3]
  Kd: 3.4 µM
